Patent US20100129369A1 (Eli Lilly, published 2010)

What was measured:
RON-ECD-Fc [1] = biological target: T1, RON-ECD-Fc (human, UniProt Q04912 25-957); assay: ELISA, coated ECD-Fc, antibody 0.010 ng/mL
T1 construct: extracellular domain; Bought reagent; not shown: Fc part of the bought fusion
T1 sequence (looked up): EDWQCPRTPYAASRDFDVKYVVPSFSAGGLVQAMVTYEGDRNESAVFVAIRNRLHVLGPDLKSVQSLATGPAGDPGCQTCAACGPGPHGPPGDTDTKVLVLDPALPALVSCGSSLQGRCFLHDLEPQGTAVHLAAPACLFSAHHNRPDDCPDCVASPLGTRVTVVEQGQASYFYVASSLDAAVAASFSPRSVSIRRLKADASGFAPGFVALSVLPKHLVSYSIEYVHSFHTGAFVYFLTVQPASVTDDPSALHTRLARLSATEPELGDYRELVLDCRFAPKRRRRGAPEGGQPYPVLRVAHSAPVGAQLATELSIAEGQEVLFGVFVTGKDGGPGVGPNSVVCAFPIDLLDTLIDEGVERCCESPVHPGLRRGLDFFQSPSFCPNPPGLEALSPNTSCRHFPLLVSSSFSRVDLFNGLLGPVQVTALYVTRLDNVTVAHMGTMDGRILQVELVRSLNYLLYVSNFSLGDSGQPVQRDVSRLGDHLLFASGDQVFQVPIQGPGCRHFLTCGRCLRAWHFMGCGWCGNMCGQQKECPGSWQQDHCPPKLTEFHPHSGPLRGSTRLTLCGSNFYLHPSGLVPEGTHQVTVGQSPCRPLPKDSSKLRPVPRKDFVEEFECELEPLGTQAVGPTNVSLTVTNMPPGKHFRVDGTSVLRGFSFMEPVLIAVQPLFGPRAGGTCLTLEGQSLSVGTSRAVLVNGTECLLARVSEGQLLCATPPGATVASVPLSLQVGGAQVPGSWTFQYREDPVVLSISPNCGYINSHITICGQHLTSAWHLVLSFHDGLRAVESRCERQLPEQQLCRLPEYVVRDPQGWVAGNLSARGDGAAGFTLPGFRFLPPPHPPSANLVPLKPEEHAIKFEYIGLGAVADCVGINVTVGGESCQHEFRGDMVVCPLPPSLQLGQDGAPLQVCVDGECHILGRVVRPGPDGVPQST
Protocol: (§1) Wells of 96-well EIA/RIA high binding plates (Costar, #2592) are coated with 100 μL of 1 μg/mL human c-Met extracellular domain (ECD)-Fc-Flis fusion (SEQ ID NO:72), RON-ECD-Fc (R&D Systems, #1947-MS), or PlexinA2-ECD-Fc (Abnova, Taipei, Taiwan #H00005362-P01) in coating buffer (BioFX Labs, # COAT-1000-01) overnight at 4° C. […] After the plates are washed, 100 μL/well of substrate solution (BioFx, #TMBW-1000-01) are added and the plates are incubated for 10 min. at room temperature. 100 μL/well of stop solution (BioFx, # LSTP-1000-01) are added to stop the reaction. The colorimetric signals are developed and read at 450 nm using a SpectraMax 190 plate reader (Molecular Devices, Sunnyvale, Calif.). c-Met antibody binding to c-Met, RON and PlexinA2 ECDs is proportional to color signal production.

PlexinA2-ECD-Fc [2] = biological target: T2, PlexinA2-ECD-Fc (human, UniProt O75051 35-1237); assay: ELISA, coated ECD-Fc, antibody 0.010 ng/mL
T2 construct: extracellular domain; Bought reagent
T2 sequence (looked up): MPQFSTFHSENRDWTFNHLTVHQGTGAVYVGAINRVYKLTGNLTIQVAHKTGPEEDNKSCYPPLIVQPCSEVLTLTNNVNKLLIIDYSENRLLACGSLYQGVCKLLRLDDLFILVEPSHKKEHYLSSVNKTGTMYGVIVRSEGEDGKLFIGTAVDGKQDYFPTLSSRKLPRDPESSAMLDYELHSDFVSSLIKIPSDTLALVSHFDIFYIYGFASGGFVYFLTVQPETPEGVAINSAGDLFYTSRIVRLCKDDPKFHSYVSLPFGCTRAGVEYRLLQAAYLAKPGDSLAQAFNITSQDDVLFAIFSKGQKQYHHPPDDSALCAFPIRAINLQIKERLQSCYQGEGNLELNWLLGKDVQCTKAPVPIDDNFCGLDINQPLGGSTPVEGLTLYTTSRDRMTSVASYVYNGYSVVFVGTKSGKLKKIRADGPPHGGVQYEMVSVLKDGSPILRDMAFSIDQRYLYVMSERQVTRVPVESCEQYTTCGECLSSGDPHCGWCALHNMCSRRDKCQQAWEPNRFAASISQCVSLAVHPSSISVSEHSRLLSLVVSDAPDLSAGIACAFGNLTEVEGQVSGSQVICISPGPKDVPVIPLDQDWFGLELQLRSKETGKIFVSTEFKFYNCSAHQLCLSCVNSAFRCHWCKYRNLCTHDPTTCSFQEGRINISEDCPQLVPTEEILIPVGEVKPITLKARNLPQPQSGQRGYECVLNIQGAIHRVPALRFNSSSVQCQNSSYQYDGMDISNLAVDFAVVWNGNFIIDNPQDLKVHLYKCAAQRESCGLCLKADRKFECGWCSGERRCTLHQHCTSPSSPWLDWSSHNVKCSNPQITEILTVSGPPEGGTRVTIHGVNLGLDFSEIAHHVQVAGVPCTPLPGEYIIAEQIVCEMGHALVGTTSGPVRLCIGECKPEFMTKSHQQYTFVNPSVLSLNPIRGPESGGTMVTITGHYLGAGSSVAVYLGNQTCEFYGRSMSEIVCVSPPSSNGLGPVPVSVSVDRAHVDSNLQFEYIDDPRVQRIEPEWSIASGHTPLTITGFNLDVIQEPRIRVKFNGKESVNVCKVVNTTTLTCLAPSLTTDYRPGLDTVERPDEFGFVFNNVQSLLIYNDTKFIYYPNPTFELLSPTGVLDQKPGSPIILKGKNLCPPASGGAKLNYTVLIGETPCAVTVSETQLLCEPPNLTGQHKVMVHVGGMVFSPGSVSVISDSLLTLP
Protocol: as §1

Human c-Met-Flis-Fc ECD [3] = biological target: T3, Human c-Met-Flis-Fc ECD (human); assay: ELISA, coated ECD-Fc, antibody 0.010 ng/mL
T3 construct: also called human c-Met extracellular domain (ECD)-Fc-Flis fusion; Human cMet-ECD-Fc-Flis
T3 sequence (chain, as listed by the source limits assumed): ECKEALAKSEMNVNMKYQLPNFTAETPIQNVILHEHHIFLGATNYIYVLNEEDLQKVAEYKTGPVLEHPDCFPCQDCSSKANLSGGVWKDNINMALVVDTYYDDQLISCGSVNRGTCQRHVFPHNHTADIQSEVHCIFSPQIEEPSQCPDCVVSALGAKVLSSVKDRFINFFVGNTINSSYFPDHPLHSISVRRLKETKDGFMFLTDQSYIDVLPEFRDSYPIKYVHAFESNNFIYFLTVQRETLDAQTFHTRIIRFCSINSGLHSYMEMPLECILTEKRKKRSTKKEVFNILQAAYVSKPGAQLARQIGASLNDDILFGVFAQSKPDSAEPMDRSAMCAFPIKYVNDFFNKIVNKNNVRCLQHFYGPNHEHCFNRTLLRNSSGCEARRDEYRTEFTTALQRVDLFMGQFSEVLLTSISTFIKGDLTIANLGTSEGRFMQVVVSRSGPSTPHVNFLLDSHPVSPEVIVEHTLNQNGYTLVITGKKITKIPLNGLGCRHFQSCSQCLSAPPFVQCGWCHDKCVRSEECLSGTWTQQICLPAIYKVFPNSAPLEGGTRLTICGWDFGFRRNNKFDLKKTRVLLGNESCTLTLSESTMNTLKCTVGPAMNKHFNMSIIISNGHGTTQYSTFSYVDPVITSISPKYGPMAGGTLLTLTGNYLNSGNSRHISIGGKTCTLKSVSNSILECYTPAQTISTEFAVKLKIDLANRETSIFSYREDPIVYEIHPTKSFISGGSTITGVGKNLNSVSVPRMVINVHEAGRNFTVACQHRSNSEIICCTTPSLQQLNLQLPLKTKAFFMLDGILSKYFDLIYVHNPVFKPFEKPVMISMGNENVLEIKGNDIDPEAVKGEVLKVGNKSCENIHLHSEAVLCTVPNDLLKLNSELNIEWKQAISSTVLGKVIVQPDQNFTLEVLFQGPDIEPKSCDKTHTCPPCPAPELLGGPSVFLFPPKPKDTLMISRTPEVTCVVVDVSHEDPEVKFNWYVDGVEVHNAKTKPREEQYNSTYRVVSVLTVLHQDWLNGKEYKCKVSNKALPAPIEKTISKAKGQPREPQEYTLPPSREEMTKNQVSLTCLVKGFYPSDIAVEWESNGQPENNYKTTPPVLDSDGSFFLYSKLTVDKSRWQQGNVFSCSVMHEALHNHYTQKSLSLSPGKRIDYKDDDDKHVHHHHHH
Protocol: as §1

Human c-Met-Flis-Fc ECD [4] = biological target: T3, Human c-Met-Flis-Fc ECD; assay: ELISA, coated ECD-Fc, antibody 0.357 ng/mL
Protocol: as §1

RON-ECD-Fc [5] = biological target: T1, RON-ECD-Fc; assay: ELISA, coated ECD-Fc, antibody 2777.778 ng/mL
Protocol: as §1

PlexinA2-ECD-Fc [6] = biological target: T2, PlexinA2-ECD-Fc; assay: ELISA, coated ECD-Fc, antibody 2777.778 ng/mL
Protocol: as §1

Human c-Met-Flis-Fc ECD [7] = biological target: T3, Human c-Met-Flis-Fc ECD; assay: ELISA, coated ECD-Fc, antibody 2777.778 ng/mL
Protocol: as §1

B1: C8-6 (antibody, human IgG2, kappa, V domains shown)
VH: QVQLVQSGAEVKKPGASVKVSCKASGYTFTDYYMHWVRQAPGQGLEWMGRVNPNRGGTTYNQKFEGRVTMTTDTSTSTAYMELRSLRSDDTAVYYCARTNWLDYWGQGTTVTVSS
VL: DIQMTQSPSSLSASVGDRVTITCSVSSSVSSIYLHWYQQKPGKAPKLLIYSTSNLASGVPSRFSGSGSGTDFTLTISSLQPEDFATYYCIQYSGYPLTFGGGTKVEIKR
notes: Called IgG4, kappa; also called Mab C8-6
- Average A450 nm (RON-ECD-Fc [1]): 0.097 A450 nm
- Average A450 nm (PlexinA2-ECD-Fc [2]): 0.095 A450 nm
- Average A450 nm (Human c-Met-Flis-Fc ECD [3]): 0.335 A450 nm
- Average A450 nm (Human c-Met-Flis-Fc ECD [4]): 0.813 A450 nm
- Average A450 nm (RON-ECD-Fc [5]): 0.088 A450 nm
- Average A450 nm (PlexinA2-ECD-Fc [6]): 0.094 A450 nm
- Average A450 nm (Human c-Met-Flis-Fc ECD [7]): 4 A450 nm
